Our source for the proportion of cells which bind to the beads values is patent US20080193979A1.

For this experiment, the target named is streptavidin (UniProt P22629). The experiment is described as follows: recovery of cells on streptavidin coated magnetic beads (Dynal).
streptavidin, sequence (P22629 37-163 limits assumed): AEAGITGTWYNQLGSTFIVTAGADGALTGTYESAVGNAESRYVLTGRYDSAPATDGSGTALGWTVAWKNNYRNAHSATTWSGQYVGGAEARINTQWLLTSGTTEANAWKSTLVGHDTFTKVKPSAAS

Consider “Ramos IgM (unselected / wild-type Ramos cells, surface and secreted IgM) (antibody)”, for which the proportion of cells which bind to the beads is 0.02%.
